Measurements reported in US9453060B2, “Protein engineered systems for delivery of molecules” (New York University, priority 2013, dated 2016).

B1: CSP: engineered supercharged coiled-coil protein, SEQ ID NO:1; COMPcc with eight solvent-exposed residues mutated to arginine (protein)
chain: MRGSHHHHHHGSGRLRPQMLRELQRTNAALRDVRELLRQQVKEITRLKNTVRRSRASGKLN
modifications: supercharged coiled-coil protein
notes: COMPcc with eight solvent-exposed residues mutated to arginine
B2: COMPcc: cartilage oligomeric matrix protein coiled-coil, parent protein, SEQ ID NO:2 (protein)
chain: MRGSHHHHHHGSGDLAPQMLRELQETNAALQDVRELLRQQVKEITFLKNTVMESDASGKLN
modifications: supercharged coiled-coil protein

Assays:
[1] = Curcumin binding/loading to protein
[2] = Doxorubicin binding/loading to protein
[3] = system: MCF7; assay: β-galactosidase gene transfection across different cell lines; assay type: cell-based
[4] = CD spectroscopy temperature scan (melting temperature); assay type: physicochemical; conditions: CD at 222 nm
Experimental: CD spectroscopy. The secondary structure of CSP/COMPcc was analyzed using a Jasco J-815 spectrometer at 10 μM protein concentration in 50 mM Tris-HCl buffer pH 8.0. The wavelength scans were performed at 4° C. over a range of 200-250 nm with a 1 nm step size. Temperature scans were performed at 222 nm from 20° C. to 85° C. with temperature ramp of 1° C./min The observed ellipticity value (Θ) was converted into mean residue ellipticity (MRE) using the standard equation ΘMRE=Θ/(10 cpl) where c is the molar concentration of the protein, p is the path length in centimeters and l is the number of amino acids. The fraction folded was derived using equation F=(ΘA−ΘU)/(ΘN−ΘU), where, ΘA is the MRE observed at given temperature, ΘU is MRE value for completely unfolded protein and ΘN is the MRE value of completely folded protein that is considered at 25° C. The first derivative of fraction folded was used to calculate melting temperature (Tm) of protein. All data were represented as an average of three trials.

[5] = system: MC3T3-E1 cells; assay: Cell viability by MTT assay; assay type: cell-based, mouse
Experimental: Cell viability studies. The cells were seeded in 96-well plate at a density of […] in αMEM with 10% FBS and incubated at 37° C. with 5% CO2 overnight. The cytotoxicity of different complexes was evaluated by 3-(4,5-dimethylthiazol-2-yl)-2,5-diphenyl […] bromide, MTT assay. Approximately 10 μL of MTT reagent from 5 mg/mL stock was added to each well and incubated for 4 hours at 37° C. with 5% CO2. After incubation, the entire medium was aspirated and 100 μL of dimethyl sulfoxide was added to each well. The change in absorbance of colored solution was observed using a microplate reader Synergy HT at 570 nm. The percent cell viability was calculated by normalizing the observed absorbance value to that of the control cells without any treatment. The data was represented as the average of quadruplicates±standard deviation.

[6] = system: β-galactosidase plasmid DNA; assay: Electrophoretic mobility shift assay (gel retardation) of protein binding to plasmid DNA; conditions: protein to DNA w/w ratio 18:1
Experimental: The β-galactosidase plasmid DNA (5.1 kb) at a concentration of 50 ng was mixed with different concentrations of CSP and COMPcc and incubated at room temperature for 30 minutes. The mixtures were run on 1% agarose gel (stained with ethidium bromide) and imaged under UV light using ImageQuant (GE healthcare).

Molecule	curcumin loading [1] [%]	doxorubicin loading [2] [%]	β-galactosidase gene transfection (in words) [3]	decrease in the melting temperature (Tm) in comparison to the parent COMPcc [4] [°C]	cytotoxicity (in words) [5]	DNA shift at higher protein to DNA ratio [6]
B1	63	31	drastic increase in transfection	10	not cytotoxic	
B2	64	26				negligible DNA shift
